Results published in paper PMC2171414.
Values belong to the molecule of their own block, whether it stands above or below them.

Experiments:
Assay in all cases: co-IP
[1] = target: M3TH-Fis1p (3XMyc/TEV/His8-Fis1p) (S. cerevisiae) (UniProt P40515)
[2] = target: Caf4p-HTM (S. cerevisiae) (UniProt P36130)
[3] = target: Mdv1p-HTM (S. cerevisiae) (UniProt P47025)

UniProt P40515, sequence (P40515 whole entry): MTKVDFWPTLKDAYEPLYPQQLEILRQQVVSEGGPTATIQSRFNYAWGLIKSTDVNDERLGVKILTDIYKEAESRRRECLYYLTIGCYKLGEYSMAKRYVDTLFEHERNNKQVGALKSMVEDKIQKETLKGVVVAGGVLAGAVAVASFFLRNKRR

Molecule: Caf4p-N-HA (residues 1–274) (from UniProt P36130 1-274) (domain or fragment)
- percent coimmunoprecipitated [2]: 5%
- percent coprecipitated [3]: 1%

B1: Mdv1p-HA (Mdv1 wt, residues 1–714) (natural protein)
chain: MSVNDQITHIGKTLSTTASAFLNYQKSNSNTQDVLTNNGPYKNLLSNTVNNASSTSYFYKRTEHGRFVKNASNTFEDIYSKTRRGDVFRNKFTDNKTCFRMLTYISDDLLNEIPTKEGLKSDADGKLLTEGGENENLRKNASKKETSLFQGFKSYLPIAELAIENTERLNYDTNGTSGTVGAKDVMSKTNERDEIHTELPNFQDSFLIPPGVETKKISSSYSPSALKSFSQTLVNSLEFLNIQKNSTLSEIRDIEVEVENLRQKKEKLLGKIANIEQNQLLLEDNLKQIDDRLDFLEEYGLEVIEANSDENAEDDGMSERKALKNDAIRNEGVTTESISSEASNLPPRRRQQLRDDNSLNRLGAFYSKSKKRHRKSFPTFQQLYEPGTKIGSIMSTHDDFLTCLDFDAPFGTLCTAGYLDHTVKIWDLSKQNKIGELAGHLATINCMQINRDYGTLVTGGRDAALKLWNLNLAQQLYQETQNLTSPTNHIDSPCVHTFEAHTDEVTALSLDPSFLVSGSQDRTIRQWDLRSGKCLQTIDLSFANVLTTSTNVDLSKSTLLTQRNERPSIGALQSFDAALATGTKDGVVRLWDLRSGKVIRTLKGHTDAITSLKFDSACLVTGSYDRTVRIWDLRTGLLNKFHAYSAPVLSLDLFQENAAVVVADEPSVQIYDSEKDESWSCVEQGNETSVSTVKYKENYMVEGRENGDVNIWAV
- percent coprecipitated [2]: 1%

Second part, the molecule after the results:

- percent coprecipitated [1]: 5%
- percent coimmunoprecipitated [2]: 5%
- percent coprecipitated [3]: 1%
Molecule: Caf4p-HA (Caf4p wt, residues 1–659) (from UniProt P36130 1-643) (natural protein)

- percent coprecipitated [2]: 1%
B2: Mdv1p-N-HA (residues 1–300) (domain or fragment)
chain: MSVNDQITHIGKTLSTTASAFLNYQKSNSNTQDVLTNNGPYKNLLSNTVNNASSTSYFYKRTEHGRFVKNASNTFEDIYSKTRRGDVFRNKFTDNKTCFRMLTYISDDLLNEIPTKEGLKSDADGKLLTEGGENENLRKNASKKETSLFQGFKSYLPIAELAIENTERLNYDTNGTSGTVGAKDVMSKTNERDEIHTELPNFQDSFLIPPGVETKKISSSYSPSALKSFSQTLVNSLEFLNIQKNSTLSEIRDIEVEVENLRQKKEKLLGKIANIEQNQLLLEDNLKQIDDRLDFLEEYG
